From patent publication US20140087995A1 (published 2014)
Numbered stars: 1 amine (or outer) side, 2 acyl side, 3 side chain; on linkers, the order of the positions; unused ones are H or OH. Bridge positions count the residues as written; N and C are the ends. Side chains are listed from the residue outwards. Ends that are not written are not given here. * marks the point of attachment. C20 diacid = O=C(O)CCCCCCCCCCCCCCCCCCC(=O)*; γGlu = O=C(O)[C@H](CCC(=O)[*:2])N[*:1]

T1: rat calcitonin receptor (rat, UniProt P32214 25-516)
T1 construct: whole, on cells; Membranes of transiently transfected BHK tk'ts 13 cells; also called rCTR; rat calcitonin (a) receptor
T1 sequence (looked up): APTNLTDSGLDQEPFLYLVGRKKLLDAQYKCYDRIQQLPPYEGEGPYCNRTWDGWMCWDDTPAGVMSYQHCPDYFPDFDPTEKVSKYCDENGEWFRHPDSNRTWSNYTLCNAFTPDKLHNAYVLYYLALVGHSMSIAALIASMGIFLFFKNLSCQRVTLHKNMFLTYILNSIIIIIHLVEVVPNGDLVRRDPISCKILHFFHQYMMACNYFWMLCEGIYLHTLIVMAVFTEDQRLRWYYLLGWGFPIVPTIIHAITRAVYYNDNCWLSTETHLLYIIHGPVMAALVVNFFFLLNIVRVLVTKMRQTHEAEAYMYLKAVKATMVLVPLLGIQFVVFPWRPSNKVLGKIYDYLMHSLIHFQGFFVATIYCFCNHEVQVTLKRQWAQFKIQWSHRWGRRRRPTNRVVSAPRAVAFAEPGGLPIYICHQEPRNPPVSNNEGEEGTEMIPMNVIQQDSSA

T2: human calcitonin receptor (human, UniProt P30988 25-474)
T2 construct: whole, on cells; Membranes of stably transfected cells; also called hCTR; hCT
T2 sequence (looked up): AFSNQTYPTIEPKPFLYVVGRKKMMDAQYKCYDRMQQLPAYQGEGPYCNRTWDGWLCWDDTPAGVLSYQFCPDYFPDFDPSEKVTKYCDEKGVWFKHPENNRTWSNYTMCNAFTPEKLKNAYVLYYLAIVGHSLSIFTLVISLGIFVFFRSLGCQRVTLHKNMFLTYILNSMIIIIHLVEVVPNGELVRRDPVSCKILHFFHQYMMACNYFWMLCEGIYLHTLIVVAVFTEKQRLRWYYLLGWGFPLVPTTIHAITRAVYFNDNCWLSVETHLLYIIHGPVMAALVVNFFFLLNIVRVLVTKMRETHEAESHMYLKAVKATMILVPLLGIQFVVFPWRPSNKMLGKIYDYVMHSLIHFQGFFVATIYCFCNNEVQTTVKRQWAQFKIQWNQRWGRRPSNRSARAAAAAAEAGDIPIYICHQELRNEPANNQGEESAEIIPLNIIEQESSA

T3: rat amylin receptor (rat calcitonin receptor + rat RAMP 3) (rat, UniProt P32214 25-516; Q9JJ73 23-147)
T3 construct: whole, on cells; Membranes of transiently transfected BHK tk'ts 13 cells; also called rAmylin-R; rat amylin 3(a) receptor
T3 sequence (looked up) 1: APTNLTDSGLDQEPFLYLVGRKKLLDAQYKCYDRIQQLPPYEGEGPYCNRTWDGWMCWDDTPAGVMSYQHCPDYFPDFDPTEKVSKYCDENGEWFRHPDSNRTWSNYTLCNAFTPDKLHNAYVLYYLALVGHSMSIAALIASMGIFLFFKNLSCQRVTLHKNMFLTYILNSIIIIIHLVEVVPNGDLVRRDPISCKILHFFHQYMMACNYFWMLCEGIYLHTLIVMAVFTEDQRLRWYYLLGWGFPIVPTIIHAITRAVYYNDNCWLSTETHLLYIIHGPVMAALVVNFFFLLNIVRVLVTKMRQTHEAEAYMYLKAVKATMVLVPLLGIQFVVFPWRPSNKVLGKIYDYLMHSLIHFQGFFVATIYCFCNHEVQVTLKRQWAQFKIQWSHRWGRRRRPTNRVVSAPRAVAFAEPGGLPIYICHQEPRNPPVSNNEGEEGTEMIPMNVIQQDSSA
T3 sequence (looked up) 2: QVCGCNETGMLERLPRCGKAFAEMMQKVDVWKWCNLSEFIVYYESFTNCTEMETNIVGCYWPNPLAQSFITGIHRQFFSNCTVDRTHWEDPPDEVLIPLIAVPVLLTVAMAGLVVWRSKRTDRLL


Columns and labels:
[1] = target: T1, rat calcitonin receptor; assay: SPA competition with 125I-calcitonin on membranes of BHK tk'ts 13 cells with rat calcitonin receptor (Assay VIII)
[2] = target: T2, human calcitonin receptor; assay: ratio of IC50 on human calcitonin receptor to IC50 on human amylin receptor (reference m42), SPA competition
Procedure, shortened: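 Membranes (35 ng/μL final) + SPA beads, 50 mM Hepes pH 7.4 buffer with 1 mM CaCl2, 5 mM MgCl₂, 0.1% OA, 0.02% Tween20; 120 min, 25° C, shaking; centrifuged, counted; IC₅₀ by one-site binding competition.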

[3] = target: T1, rat calcitonin receptor; assay: ratio of IC50 on rat calcitonin receptor to IC50 on rat amylin receptor (reference m40)
[4] = target: T3, rat amylin receptor (rat calcitonin …); assay: SPA competition with 125I-rat amylin on membranes of BHK tk'ts 13 cells with rat calcitonin receptor + rat RAMP3 (Assay VI)

IC50 [1]	Ratio hCT/hAmylin binding [2]	Ratio rCT/rAmylin binding [3]	IC50 [4]	Binder
23.4 nM	18	114	0.205 nM	K([γGlu-γGlu-C20 diacid])CNTATCATQRLAEFLRHSSPNFGAIPSSTNVGPNTF-NH2 (disulfide 2-7; N-terminus assumed; SMILES CC[C@H](C)[C@H](NC(=O)[C@H](C)NC(=O)CNC(=O)[C@H](Cc1ccccc1)NC(=O)[C@H](CC(N)=O)NC(=O)[C@@H]1CCCN1C(=O)[C@H](CO)NC(=O)[C@H](CO)NC(=O)[C@H](Cc1c[nH]cn1)NC(=O)[C@H](CCCNC(=N)N)NC(=O)[C@H](CC(C)C)NC(=O)[C@H](Cc1ccccc1)NC(=O)[C@H](CCC(=O)O)NC(=O)[C@H](C)NC(=O)[C@H](CC(C)C)NC(=O)[C@H](CCCNC(=N)N)NC(=O)[C@H](CCC(N)=O)NC(=O)[C@@H](NC(=O)[C@H](C)NC(=O)[C@@H]1CSSC[C@H](NC(=O)[C@@H](N)CCCCNC(=O)CC[C@H](NC(=O)CC[C@H](NC(=O)CCCCCCCCCCCCCCCCCCC(=O)O)C(=O)O)C(=O)O)C(=O)N[C@@H](CC(N)=O)C(=O)N[C@@H]([C@@H](C)O)C(=O)N[C@@H](C)C(=O)N[C@@H]([C@@H](C)O)C(=O)N1)[C@@H](C)O)C(=O)N1CCC[C@H]1C(=O)N[C@@H](CO)C(=O)N[C@@H](CO)C(=O)N[C@H](C(=O)N[C@@H](CC(N)=O)C(=O)N[C@H](C(=O)NCC(=O)N1CCC[C@H]1C(=O)N[C@@H](CC(N)=O)C(=O)N[C@H](C(=O)N[C@@H](Cc1ccccc1)C(N)=O)[C@@H](C)O)C(C)C)[C@@H](C)O, Synthetic acylated analogue of human amylin)
104 nM	145	156	0.668 nM	K([γGlu-γGlu-C20 diacid])CNTATCATQRLAHFLRHSSPNFGAIPSSTNVGSNTY-NH2 (disulfide 2-7; N-terminus assumed; SMILES CC[C@H](C)[C@H](NC(=O)[C@H](C)NC(=O)CNC(=O)[C@H](Cc1ccccc1)NC(=O)[C@H](CC(N)=O)NC(=O)[C@@H]1CCCN1C(=O)[C@H](CO)NC(=O)[C@H](CO)NC(=O)[C@H](Cc1c[nH]cn1)NC(=O)[C@H](CCCNC(=N)N)NC(=O)[C@H](CC(C)C)NC(=O)[C@H](Cc1ccccc1)NC(=O)[C@H](Cc1c[nH]cn1)NC(=O)[C@H](C)NC(=O)[C@H](CC(C)C)NC(=O)[C@H](CCCNC(=N)N)NC(=O)[C@H](CCC(N)=O)NC(=O)[C@@H](NC(=O)[C@H](C)NC(=O)[C@@H]1CSSC[C@H](NC(=O)[C@@H](N)CCCCNC(=O)CC[C@H](NC(=O)CC[C@H](NC(=O)CCCCCCCCCCCCCCCCCCC(=O)O)C(=O)O)C(=O)O)C(=O)N[C@@H](CC(N)=O)C(=O)N[C@@H]([C@@H](C)O)C(=O)N[C@@H](C)C(=O)N[C@@H]([C@@H](C)O)C(=O)N1)[C@@H](C)O)C(=O)N1CCC[C@H]1C(=O)N[C@@H](CO)C(=O)N[C@@H](CO)C(=O)N[C@H](C(=O)N[C@@H](CC(N)=O)C(=O)N[C@H](C(=O)NCC(=O)N[C@@H](CO)C(=O)N[C@@H](CC(N)=O)C(=O)N[C@H](C(=O)N[C@@H](Cc1ccc(O)cc1)C(N)=O)[C@@H](C)O)C(C)C)[C@@H](C)O, Synthetic acylated analogue of human amylin; also called compound 92)
33.5 nM	22.6	74.7	0.449 nM	K([γGlu-γGlu-C20 diacid])CNTATCATQRLAEFLRHSSPNFGAILSSTPVGPETY-NH2 (disulfide 2-7, Synthetic acylated analogue of human amylin)
86.8 nM	7.8	132	0.659 nM	K([γGlu-γGlu-C20 diacid])CNTATCATQRLAEFLRHSSNNPGAILSSTNVGPETY-NH2 (disulfide 2-7; N-terminus assumed; SMILES CC[C@H](C)[C@H](NC(=O)[C@H](C)NC(=O)CNC(=O)[C@@H]1CCCN1C(=O)[C@H](CC(N)=O)NC(=O)[C@H](CC(N)=O)NC(=O)[C@H](CO)NC(=O)[C@H](CO)NC(=O)[C@H](Cc1c[nH]cn1)NC(=O)[C@H](CCCNC(=N)N)NC(=O)[C@H](CC(C)C)NC(=O)[C@H](Cc1ccccc1)NC(=O)[C@H](CCC(=O)O)NC(=O)[C@H](C)NC(=O)[C@H](CC(C)C)NC(=O)[C@H](CCCNC(=N)N)NC(=O)[C@H](CCC(N)=O)NC(=O)[C@@H](NC(=O)[C@H](C)NC(=O)[C@@H]1CSSC[C@H](NC(=O)[C@@H](N)CCCCNC(=O)CC[C@H](NC(=O)CC[C@H](NC(=O)CCCCCCCCCCCCCCCCCCC(=O)O)C(=O)O)C(=O)O)C(=O)N[C@@H](CC(N)=O)C(=O)N[C@@H]([C@@H](C)O)C(=O)N[C@@H](C)C(=O)N[C@@H]([C@@H](C)O)C(=O)N1)[C@@H](C)O)C(=O)N[C@@H](CC(C)C)C(=O)N[C@@H](CO)C(=O)N[C@@H](CO)C(=O)N[C@H](C(=O)N[C@@H](CC(N)=O)C(=O)N[C@H](C(=O)NCC(=O)N1CCC[C@H]1C(=O)N[C@@H](CCC(=O)O)C(=O)N[C@H](C(=O)N[C@@H](Cc1ccc(O)cc1)C(N)=O)[C@@H](C)O)C(C)C)[C@@H](C)O, Synthetic acylated analogue of human amylin)
140 nM	45.3	868	0.161 nM	K([γGlu-γGlu-C20 diacid])CNTATCATQRLASFLRHSSPNFGAIPSSTNVGPETY-NH2 (disulfide 2-7; N-terminus assumed; SMILES CC[C@H](C)[C@H](NC(=O)[C@H](C)NC(=O)CNC(=O)[C@H](Cc1ccccc1)NC(=O)[C@H](CC(N)=O)NC(=O)[C@@H]1CCCN1C(=O)[C@H](CO)NC(=O)[C@H](CO)NC(=O)[C@H](Cc1c[nH]cn1)NC(=O)[C@H](CCCNC(=N)N)NC(=O)[C@H](CC(C)C)NC(=O)[C@H](Cc1ccccc1)NC(=O)[C@H](CO)NC(=O)[C@H](C)NC(=O)[C@H](CC(C)C)NC(=O)[C@H](CCCNC(=N)N)NC(=O)[C@H](CCC(N)=O)NC(=O)[C@@H](NC(=O)[C@H](C)NC(=O)[C@@H]1CSSC[C@H](NC(=O)[C@@H](N)CCCCNC(=O)CC[C@H](NC(=O)CC[C@H](NC(=O)CCCCCCCCCCCCCCCCCCC(=O)O)C(=O)O)C(=O)O)C(=O)N[C@@H](CC(N)=O)C(=O)N[C@@H]([C@@H](C)O)C(=O)N[C@@H](C)C(=O)N[C@@H]([C@@H](C)O)C(=O)N1)[C@@H](C)O)C(=O)N1CCC[C@H]1C(=O)N[C@@H](CO)C(=O)N[C@@H](CO)C(=O)N[C@H](C(=O)N[C@@H](CC(N)=O)C(=O)N[C@H](C(=O)NCC(=O)N1CCC[C@H]1C(=O)N[C@@H](CCC(=O)O)C(=O)N[C@H](C(=O)N[C@@H](Cc1ccc(O)cc1)C(N)=O)[C@@H](C)O)C(C)C)[C@@H](C)O, Synthetic acylated analogue of human amylin; also called compound 120)
